Experimental data as given in the supplement of paper PMC12042874.
± gives the uncertainty stated by the source.

Assay: amyloid nucleation score (Sup35N fusion, yeast selection) (log enrichment); library NNK3; higher = more nucleation; inactive = no reads after selection
Procedure, shortened: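 Sup35N fusions to peptides of 20 random codons were expressed in psi-negative yeast, induced 24 hours with 100 μM copper sulfate, and grown 7 days at 30°C on medium lacking adenine and uracil. Input and output plasmid inserts were sequenced by Illumina. The nucleation score is the DiMSum log enrichment of output over input reads, centred on the mode score of non-aggregating sequences. Sequences with under 100 input reads were excluded.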

Substance | amyloid nucleation score
MIFSTYNNLLWLKSLQSTGG | inactive
MILLHVVCSVFPVRGFVVLA | inactive
MILSESKYGFTFRLRVARQV | inactive
MILSNISGSRLIGSSNHSAF | inactive
MIQIIMLEGGLSCLRHLVIT | -0.362 ± 0.8
MIRLSDTRRWIVYFHQCLCG | -0.748 ± 1
MIRWTWNRKHTII | inactive
MISLMTYSYSRYMYIVSPVP | inactive
MISYELVNALEIISNLIFMW | inactive
MIVHWMVHSRLVHKAVVGDG | inactive
MIVSSYFYLVRIQYEFHAGW | 0.172 ± 0.43
MKCLEGMHFIIFLVLALCIY | inactive
MKLSMHVCAGAKLSGEGFRF | inactive
MKLSVLNVWNSRWGLQTA | inactive
MKVIRTYRGYGCQDWIELLF | inactive
MLFRLRSAYHTASDVDANDD | inactive
MLISERIFQYTCGNYS | 2.09 ± 0.085
MLITSMLCIHV | inactive
MLLFACQRLQLVALLGARML | inactive
MLMAPSYEYT | -0.209 ± 0.78
MLRDFFQ | inactive
MLRLKYLIELTRDFFGWFLF | inactive
MMPNELFDPVRKDRSFVRWV | inactive

Substance | amyloid nucleation score
MMVRWEVTV | -0.172 ± 1
MNDNLNNHVSDEIFSFVG | 0.813 ± 0.2
MNFVPTLRSIVVGRWRDLEV | inactive
MNLFFGFWLLLSAFVSHQVC | inactive
MNNVN | inactive
MNRDTYSMWSVKDKMTFI | -0.124 ± 0.75
MNRNLLFASTLTFNFVLFVW | inactive
MNYRFVISMLWVEVRGFGRQ | -0.892 ± 2.4
MPGAALLVVLFSGFVYREAM | inactive
MPNYNLSGLNWVRCG | inactive
MPYDFPVVHNIDFFG | inactive
MQLDYSSSVLNMFLDANILY | inactive
MQTNCFRMAVYFAQVRLS | inactive
MRHEHAYSIPAHCIYELIMM | inactive
MRLADLGMLGARTDQDRLPT | inactive
MRLRLYINVSG | inactive
MRNLGGLCIALPEVVEGTDF | inactive
MRQIAQRCRSGNAACIGSLG | 0.664 ± 0.23
MRRKDKNIRVDYRVAGGYRD | inactive
MRSMVKLSCDERVCFVISGE | inactive
MRSSIPIYVLMLIALSENSP | inactive
MSCIFVSKKFLRLELGSSLY | inactive
MSFRRIFSSLIYSLRRSSAN | inactive

Substance | amyloid nucleation score
MSGEFVV | inactive
MSGTLCPSHNILETDCRVQV | inactive
MSIVAGENLIGKV | inactive
MSLLGQ | inactive
MSLLS | inactive
MSLVFRMSPHIQLVGWVHGR | inactive
MSNGIVYNELFSVVRWS | 1.67 ± 0.071
MSNLCDLHKN | inactive
MSSHFSSKAFGFHYGF | inactive
MSVACFSLASVFQWGFFASC | inactive
MSVLC | inactive
MSVRG | inactive
MTAMSFKGYAVIGGVIDRCR | inactive
MTAVVDRTSNGYSYVTGHLL | inactive
MTDFKSTLSTTSMFTGESLI | inactive
MTLRRKLSMTAV | inactive
MTPMRAAMTLICHMPARRFS | inactive
MTPTMDENSFLDSSISQMLW | inactive
MTQVQCLTSVNWKVTHVLHR | 1.29 ± 0.15
MTWNVGRADGFLRSSCSNFR | inactive
MVIYSLHRTLIIICGRANLT | inactive
MVKSKSTLTCNSIEPCIVIF | inactive
MVMNYWSTCNYSWPEVVISG | inactive

Substance | amyloid nucleation score
MVNWPDGRILGSLRNWRHQD | inactive
MVSDIGWYLLQFTERRSCFY | inactive
MVSMNSAAFLFRCHYCLGVR | inactive
MVVLAVGRVKLAVYGCRKHG | inactive
MVYIKILHFVILMSMHFN | inactive
MWMLLFGCSSCWWSCNRLSP | -0.239 ± 0.8
MWWGLAPIFWLLITTTDCGY | inactive
MYAVSGVNAQGWWLLADYEL | inactive
MYETVR | inactive
MYFYYYGSRYYNNSDCLLSS | inactive
MYLFRENGHQSGNVY | inactive
MYLITGAFLCIHQHG | 1.71 ± 0.075
MYLIYGHGTIIICTESVSVH | 0.361 ± 0.15
MYRNECSMLSSIHLTVPSGN | inactive
MYSHRRGRKLRLLESFYNLS | inactive
NAFLIGTDILRFMRVLFKQL | inactive
NAGYSNRCQIGYICSVRACK | inactive
NAHLRCMTTILGLFQTFGRG | 2.02 ± 0.063
NAIGEISSVYSCTL | inactive
NALRFNLWMLNTVKVEYRSD | 2.15 ± 0.067
NAVRLVGSPAVVVSTMGHN | inactive
NAWIFVKRFS | inactive
NAYTAHGYDKLRNQSKVAYR | inactive

Substance | amyloid nucleation score
NAYVEGRSWVLVIENKDFAV | inactive
NCGRNRNPPTESCPEVGPRL | inactive
NCGVMEYGGILISYFE | inactive
NCKALGFNWALMGKSMSLRG | inactive
NCLGPWPCLTTILYLRSLEF | inactive
NCMTLCLIDIRYSFENFFSF | 2.18 ± 0.071
NCSELGSS | inactive
NCSWGRRKETTDLSGSKCWT | 0.881 ± 0.23
NCVCEWTAFLYIPSIWGFEH | 1.78 ± 0.098
NCWVNKIDVFLAESSMQCKA | inactive
NDFSKGLCMWTFNWNDTYDQ | 1.75 ± 0.077
NDIITLSQTLVELSPFGWLS | inactive
NDLWIEMFKS | inactive
NEDLIDVQVVHC | inactive
NEFVSYNLLVTGGWSRCWYF | inactive
NEHGEAGCAYEAKGAVGVKS | inactive
NENFTNAQQNFYDCVF | inactive
NENTALSTWAPGYLINSYRA | inactive
NERREANGWSYRDLHGSGFE | inactive
NEWIKDINVI | inactive
NFCFLCSWCIL | 2.56 ± 0.052
NFFAACNMMVLPFSMDFCSR | 2.77 ± 0.071
NFFCSA | inactive

Substance | amyloid nucleation score
NFLKSG | inactive
NFLLVPYLSPKLDMGGYHLW | inactive
NFLSSNFKKALHLFPISDCN | inactive
NFPGLTASMIKCGGNQCYVG | inactive
NFQTNGTLKHNN | inactive
NFRLSVLKVLCYVIVED | 2.14 ± 0.057
NFSCSSRNRWMCMDVGKVCR | -0.287 ± 0.34
NFTSFCFSKMSRLEDSGQ | inactive
NFVPVYSLSRRAVLGHTGWC | inactive
NFWNWLHNPWAPM | inactive
NGEKLFSEDVVSYWVDVYSR | inactive
NGFKEGLIAVLREQYLSYQ | inactive
NGHWL | inactive
NGMASMIRGIYNSVPHIRGL | inactive
NGPEGSLFDLSDFCHFCLNR | 0.955 ± 0.14
NGVFWGRKSRSYEFWSFYFQ | -0.052 ± 0.62
NGVVLLQIKIRDPRSCWWGV | inactive
NHKEWWFTVYLTSGVVCDLG | inactive
NHLIQIG | inactive
NHQLGIGYFCDTYLCDHWDP | inactive
NHVTVYVI | 0.555 ± 0.29
NIARRTIKLTPFFSIFCVYS | 3.2 ± 0.055
NIGWSVCERL | inactive

Substance | amyloid nucleation score
NIGYSMLESPFIIIDICNSC | 0.619 ± 0.13
NILPRRGEQAV | inactive
NINIMPG | inactive
NIRWGTYVSKFVLYLAITTR | inactive
NIRYVWCQKRLTCARSWNPV | inactive
NISLN | inactive
NISYKW | 0.377 ± 0.34
NIWNWNNRVLFCEAGMGTCI | inactive
NIWVQ | inactive
NKGSVDGYMFSTGVTFLMLE | inactive
NKLIRSEVSLLAMCMCSGNG | inactive
NKVISSSLTFRFIKVQFIYH | inactive
NKVVMGNLWGPPVFDRCDKG | inactive
NLCFCALCGKYIRVNVVAM | 1.52 ± 0.088
NLCRNDDSLFFCSS | inactive
NLCVYWYSWGRSWGDFVTGY | 0.269 ± 0.36
NLDLSGGESASWRNFSFFLK | inactive
NLESTNTMSYIWYRADSKCG | inactive
NLFVNL | 1.13 ± 0.15
